# Laboratory results: article PMC5703498, “Plant-type phytoene desaturase: Functional evaluation of structural implications” (PLoS ONE, 2017)
# B1: Phytoene desaturase (OsPDS-His6) (Oryza sativa Indica Group) (protein)
# chain: AGQLSSFFRNSEQPTKPLQVVIAGAGLAGLSTAKYLADAGHKPILLEARDVLGGKIAAWKDEDGDWYETGLHIFFGAYPNIQNLFGELGINDRLQWKEHSMIFAMPNKPGEFSRFDFPETLPAPLNGIWAILRNNEMLTWPEKVKFALGLLPAMVGGQAYVEAQDGFTVSEWMKKQGVPDRVNDEVFIAMSKALNFINPDELSMQCILIALNRFLQEKHGSKMAFLDGNPPERLCMPIVDHVRSLGGEVRLNSRIQKIELNPDGTVKHFALTDGTQITGDAYVFATPVDILKLLVPQEWKEISYFKKLEKLVGVPVINVHIWFDRKLKNTYDHLLFSRSSLLSVYADMSVTCKEYYDPNRSMLELVFAPAEEWVGRSDTEIIEATMQELAKLFPDEIAADQSKAKILKYHVVKTPRSVYKTIPDCEPCRPLQRSPIEGFYLAGDYTKQKYLASMEGAVLSGKLCAQSVVEDYKMLSRRSLKSLQSEVPVAS
# B2: Phytoene desaturase (OsPDS-His6) (Oryza sativa Indica Group; R300S) (protein)
# chain: AGQLSSFFRNSEQPTKPLQVVIAGAGLAGLSTAKYLADAGHKPILLEARDVLGGKIAAWKDEDGDWYETGLHIFFGAYPNIQNLFGELGINDRLQWKEHSMIFAMPNKPGEFSRFDFPETLPAPLNGIWAILRNNEMLTWPEKVKFALGLLPAMVGGQAYVEAQDGFTVSEWMKKQGVPDRVNDEVFIAMSKALNFINPDELSMQCILIALNSFLQEKHGSKMAFLDGNPPERLCMPIVDHVRSLGGEVRLNSRIQKIELNPDGTVKHFALTDGTQITGDAYVFATPVDILKLLVPQEWKEISYFKKLEKLVGVPVINVHIWFDRKLKNTYDHLLFSRSSLLSVYADMSVTCKEYYDPNRSMLELVFAPAEEWVGRSDTEIIEATMQELAKLFPDEIAADQSKAKILKYHVVKTPRSVYKTIPDCEPCRPLQRSPIEGFYLAGDYTKQKYLASMEGAVLSGKLCAQSVVEDYKMLSRRSLKSLQSEVPVAS
# How the values were obtained:
# Format in all cases: biochemical, Oryza sativa
# [1] = substrate: CC(C)=CCC/C(C)=C/CC/C(C)=C/CC/C(C)=C/C=C\C=C(/C)CC/C=C(\C)CC/C=C(\C)CCC=C(C)C; test: Michaelis-Menten kinetics of purified enzyme in liposome assay (KM), HPLC; settings: FAD hydrophobic substrate cavity, C11-C12 near the flavin
# [2] = substrate: CC(C)=CCC/C(C)=C/CC\C(C)=C/C=C/C(C)=C/C=C\C=C(/C)CC/C=C(\C)CC/C=C(\C)CCC=C(C)C; test: as above; settings: FAD competes with phytoene at the active site
# [3] = substrate: CCCCCCCCCCC1=CC(=O)C(C)=C(C)C1=O; test: Michaelis-Menten kinetics of purified enzyme in liposome assay (KM); settings: FAD electron acceptor; same substrate cavity as the carotene, successively occupied, near the FAD
# [4] = substrate: CC(C)=CCC/C(C)=C/CC/C(C)=C/CC/C(C)=C/C=C\C=C(/C)CC/C=C(\C)CC/C=C(\C)CCC=C(C)C; test: Michaelis-Menten kinetics of purified mutant in liposome assay (KM); settings: FAD hydrophobic substrate cavity
# [5] = substrate: CCCCCCCCCCC1=CC(=O)C(C)=C(C)C1=O; test: as above; settings: FAD electron acceptor; same substrate cavity as the carotene
Protein,Km [1],Km [2],Km [3],Km [4],Km [5]
B1,53.9 ± 18.1 mM,66.8 ± 20.7 mM,1.3 ± 0.2 mM,–,–
B2,–,–,–,4.5 ± 2.6 mM,0.4 ± 0.1 mM
